Data as given in patent US20080044360A1 (COLLAGEN MEDICAL, published 2008).
Bridge positions count the residues as written; N and C are the ends. Square brackets hold non-standard residues; d marks the D form. Ends that are not written are not given here.

B1: SEQ ID NO 171 (peptide)
peptide: QWTCSGDE[dY]TWHCNYE
modifications: disulfide 4-13 (inferred); not fully specified (N-terminus); printed as QWTCSGDEyTWHCNYE
notes: cyclic, disulfide
B2: SEQ ID NO 169 (peptide)
peptide: QWTCSG[dD]EYTWHCNYE
modifications: disulfide 4-13 (inferred); not fully specified (N-terminus); printed as QWTCSGdEYTWHCNYE
notes: cyclic, disulfide

Target: T1, human collagen type I, acid soluble, extracted from placenta (Sigma C7774) (human, UniProt P02452 162-1218; P08123 80-1119)
T1 construct: tissue extract, gelled and dried in wells; also called dried human collagen; h-Collagen
T1 sequence (P02452 162-1218 limits assumed, chain 1 of 2): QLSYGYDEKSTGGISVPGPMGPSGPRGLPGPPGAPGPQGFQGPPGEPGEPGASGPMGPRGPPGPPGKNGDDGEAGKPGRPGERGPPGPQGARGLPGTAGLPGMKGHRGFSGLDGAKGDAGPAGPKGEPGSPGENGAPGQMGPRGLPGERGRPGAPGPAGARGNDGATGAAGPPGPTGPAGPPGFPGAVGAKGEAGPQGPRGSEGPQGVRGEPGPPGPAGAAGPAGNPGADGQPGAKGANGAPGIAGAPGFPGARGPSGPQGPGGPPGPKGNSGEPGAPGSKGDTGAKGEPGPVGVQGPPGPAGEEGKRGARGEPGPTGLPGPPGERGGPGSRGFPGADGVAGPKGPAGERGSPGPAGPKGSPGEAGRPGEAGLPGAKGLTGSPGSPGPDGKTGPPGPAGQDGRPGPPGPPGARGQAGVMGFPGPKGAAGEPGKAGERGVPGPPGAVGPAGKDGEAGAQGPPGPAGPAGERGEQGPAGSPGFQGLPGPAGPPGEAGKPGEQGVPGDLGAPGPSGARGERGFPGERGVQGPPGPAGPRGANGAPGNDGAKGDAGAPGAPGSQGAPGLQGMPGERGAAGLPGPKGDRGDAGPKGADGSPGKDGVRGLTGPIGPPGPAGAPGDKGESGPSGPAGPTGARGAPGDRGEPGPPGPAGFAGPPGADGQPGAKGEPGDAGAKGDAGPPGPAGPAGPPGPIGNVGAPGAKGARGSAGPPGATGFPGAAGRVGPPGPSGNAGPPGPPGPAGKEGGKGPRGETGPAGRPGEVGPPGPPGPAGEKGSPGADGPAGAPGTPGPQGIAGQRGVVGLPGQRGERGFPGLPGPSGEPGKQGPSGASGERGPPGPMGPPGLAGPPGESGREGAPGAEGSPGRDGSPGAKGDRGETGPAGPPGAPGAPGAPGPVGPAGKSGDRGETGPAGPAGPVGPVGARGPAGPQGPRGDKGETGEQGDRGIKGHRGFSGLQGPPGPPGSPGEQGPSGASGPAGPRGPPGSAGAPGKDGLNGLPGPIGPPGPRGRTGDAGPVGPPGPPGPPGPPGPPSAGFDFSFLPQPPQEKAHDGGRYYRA
T1 sequence (P08123 80-1119 limits assumed, chain 2 of 2): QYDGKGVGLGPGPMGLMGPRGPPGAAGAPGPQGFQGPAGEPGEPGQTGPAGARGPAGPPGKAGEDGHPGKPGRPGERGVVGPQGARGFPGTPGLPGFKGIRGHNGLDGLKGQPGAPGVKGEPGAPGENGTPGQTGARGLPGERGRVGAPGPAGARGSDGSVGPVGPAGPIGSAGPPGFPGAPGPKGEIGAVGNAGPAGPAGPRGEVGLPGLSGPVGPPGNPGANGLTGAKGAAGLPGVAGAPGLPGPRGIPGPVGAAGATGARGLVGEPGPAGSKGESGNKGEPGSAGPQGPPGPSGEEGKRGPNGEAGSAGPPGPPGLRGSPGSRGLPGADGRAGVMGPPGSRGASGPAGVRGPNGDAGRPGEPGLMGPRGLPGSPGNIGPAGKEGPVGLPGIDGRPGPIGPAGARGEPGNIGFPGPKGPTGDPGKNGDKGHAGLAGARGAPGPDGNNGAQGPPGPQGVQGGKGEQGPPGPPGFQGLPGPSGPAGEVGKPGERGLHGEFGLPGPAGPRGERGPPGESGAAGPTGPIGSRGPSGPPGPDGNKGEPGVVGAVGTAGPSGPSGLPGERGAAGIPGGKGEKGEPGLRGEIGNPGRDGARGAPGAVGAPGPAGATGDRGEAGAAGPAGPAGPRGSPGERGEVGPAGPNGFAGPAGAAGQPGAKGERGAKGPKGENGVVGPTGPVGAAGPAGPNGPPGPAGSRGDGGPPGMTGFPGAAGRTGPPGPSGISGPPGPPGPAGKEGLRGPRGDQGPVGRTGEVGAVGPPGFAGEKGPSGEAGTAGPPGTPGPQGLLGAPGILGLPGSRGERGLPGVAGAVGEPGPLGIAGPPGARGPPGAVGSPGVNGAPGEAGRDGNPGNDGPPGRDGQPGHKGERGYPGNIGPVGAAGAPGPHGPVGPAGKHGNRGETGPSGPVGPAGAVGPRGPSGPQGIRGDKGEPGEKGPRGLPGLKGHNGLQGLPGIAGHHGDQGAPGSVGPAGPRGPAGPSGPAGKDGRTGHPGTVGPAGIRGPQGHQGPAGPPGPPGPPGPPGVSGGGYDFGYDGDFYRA
Test: dried collagen assay
Procedure: An additional 90 μL is reserved in a HPLC glass vial as a measure of the total concentration.

| Binder | % bound |
| --- | --- |
| AWDCSGNIPTWYCRRL (disulfide 4-13 (inferred), cyclic, disulfide) [SEQ ID NO 23] | 44% |
| TWNCYGVTEWHCYMI (disulfide 4-12 (inferred), cyclic, disulfide) [SEQ ID NO 9] | 7% |
| PWYCSGDHLDWKCIYQ (disulfide 4-13 (inferred), cyclic, disulfide) [SEQ ID NO 20] | 64% |
| EWLCVGDSLKWYCKHS (disulfide 4-13 (inferred), cyclic, disulfide) [SEQ ID NO 24] | 43% |
| GWQCFGASDWHCTWV (disulfide 4-12 (inferred), cyclic, disulfide) [SEQ ID NO 8] | 9% |
| DWECHGNEFEWNCLMR (disulfide 4-13 (inferred), cyclic, disulfide) [SEQ ID NO 22] | 55% |
| IWLCTGGAATWNCKFD (disulfide 4-13 (inferred), cyclic, disulfide) [SEQ ID NO 25] | 39% |
| DWTCVGDHKTWKCNFH (disulfide 4-13 (inferred), cyclic, disulfide) [SEQ ID NO 21] | 57% |
| PMICHAPYVGKCNFL (disulfide 4-12 (inferred), cyclic, disulfide) [SEQ ID NO 12] | 7% |
| DWTCSGDEYTWHCNYE (disulfide 4-13 (inferred), cyclic, disulfide) [SEQ ID NO 17] | 78% |
| DWTCSGDEYYWHCNYE (disulfide 4-13 (inferred); not fully specified (C-terminus), cyclic, disulfide) [SEQ ID NO 16] | 83% |
| DWTCRGDEYTWHCNYE (disulfide 4-13 (inferred), cyclic, disulfide) [SEQ ID NO 14] | 83% |
| DWTCYGDEYTWHCNYE (disulfide 4-13 (inferred); not fully specified (C-terminus), cyclic, disulfide) [SEQ ID NO 15] | 83% |
| GQWTCSADEYTWHCNYE (disulfide 5-14 (inferred), cyclic, disulfide) [SEQ ID NO 142] | 9% |
| DWTCSGDEYTWYCNYE (disulfide 4-13 (inferred), cyclic, disulfide) [SEQ ID NO 18] | 78% |
| B1 | 13% |
| B2 | 11% |
| DWTCSGDEYRWHCNYE (disulfide 4-13 (inferred), cyclic, disulfide) [SEQ ID NO 19] | 70% |
| PLVCHPPYSGSCSLH (disulfide 4-12 (inferred), cyclic, disulfide) [SEQ ID NO 11] | 9% |
| LTVCHPPYYGRCNFV (disulfide 4-12 (inferred), cyclic, disulfide) [SEQ ID NO 10] | 9% |
